Measured values from the supplement of paper PMC9112550, “Optimization of the antimicrobial peptide Bac7 by deep mutational scanning” (BMC Biology, 2022).

System: Escherichia coli TOP10
Assay: shrunken log2 fold change of peptide-encoding DNA abundance (4.5 h post-induction vs induction); higher = less antimicrobial activity (less host growth inhibition)
Conditions: time post-induction: 4.5 h; library: site-saturation at positions 5, 18, 19, 20
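Note: peptides expressed intracellularly from a pBAD plasmid library in pooled LB shake-flask culture, induced with 0.3% L-arabinose, DNA abundance read by NGS, three biological replicates, DESeq2 with apeglm shrinkage.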

Q: With RRIRPRPPRLPRPRPRPYQTPRP as the sequence, how does the “shrunken log2 fold change” value read?
A: Its value is 0.0331.

Q: RRIRDRPPRLPRPRPRPFPEPRP was tested. Which “shrunken log2 fold change” value did it give?
A: The value was -0.144.

Q: How did the “shrunken log2 fold change” value turn out when RRIRIRPPRLPRPRPRPCNTPRP was run?
A: Its value is -0.0252.

Q: How did the “shrunken log2 fold change” value turn out when RRIRGRPPRLPRPRPRPAGWPRP was run?
A: The value was 1.15.

Q: How did the “shrunken log2 fold change” value turn out when RRIRGRPPRLPRPRPRPVIWPRP was run?
A: The value was 0.886.

Q: With RRIRVRPPRLPRPRPRPEFFPRP as the sequence, how does the “shrunken log2 fold change” value read?
A: Its value is 0.183.

Q: With RRIRHRPPRLPRPRPRPTHEPRP as the sequence, how does the “shrunken log2 fold change” value read?
A: Its value is 0.0424.

Q: RRIRVRPPRLPRPRPRPCCLPRP was tested. Which “shrunken log2 fold change” value did it give?
A: The value was -0.241.

Q: Which “shrunken log2 fold change” value does the source give for RRIRCRPPRLPRPRPRPSKPPRP here?
A: Its value is -0.109.

Q: For RRIRERPPRLPRPRPRPRLFPRP, which “shrunken log2 fold change” value is on record?
A: Its value is 0.00738.

Q: How did the “shrunken log2 fold change” value turn out when RRIRPRPPRLPRPRPRPTQCPRP was run?
A: The value was -0.194.

Q: RRIRCRPPRLPRPRPRPDNLPRP was tested. Which “shrunken log2 fold change” value did it give?
A: The value was -0.595.

Q: RRIRIRPPRLPRPRPRPIMDPRP was tested. Which “shrunken log2 fold change” value did it give?
A: Its value is -0.364.

Q: RRIRVRPPRLPRPRPRPIPAPRP was tested. Which “shrunken log2 fold change” value did it give?
A: Its value is 0.000426.

Q: For RRIRVRPPRLPRPRPRPKEMPRP, which “shrunken log2 fold change” value is on record?
A: Its value is -0.131.

Q: With RRIRDRPPRLPRPRPRPKKKPRP as the sequence, how does the “shrunken log2 fold change” value read?
A: The value was -0.0718.

Q: How did the “shrunken log2 fold change” value turn out when RRIRHRPPRLPRPRPRPPVMPRP was run?
A: Its value is -0.0747.

Q: With RRIRMRPPRLPRPRPRPLNGPRP as the sequence, how does the “shrunken log2 fold change” value read?
A: Its value is -0.00843.

Q: With RRIRPRPPRLPRPRPRPGCKPRP as the sequence, how does the “shrunken log2 fold change” value read?
A: The value was 0.368.

Q: Which “shrunken log2 fold change” value does the source give for RRIRMRPPRLPRPRPRPQRAPRP here?
A: Its value is 0.943.

Q: RRIRQRPPRLPRPRPRPINYPRP was tested. Which “shrunken log2 fold change” value did it give?
A: Its value is -0.0444.

Q: RRIRGRPPRLPRPRPRPNMPPRP was tested. Which “shrunken log2 fold change” value did it give?
A: Its value is -0.317.

Q: RRIRWRPPRLPRPRPRPNQAPRP was tested. Which “shrunken log2 fold change” value did it give?
A: Its value is -0.0796.

Q: With RRIRTRPPRLPRPRPRPNNMPRP as the sequence, how does the “shrunken log2 fold change” value read?
A: Its value is -0.346.

Q: RRIRKRPPRLPRPRPRPMWIPRP was tested. Which “shrunken log2 fold change” value did it give?
A: The value was -0.0247.

Q: For RRIRTRPPRLPRPRPRPSVLPRP, which “shrunken log2 fold change” value is on record?
A: The value was -0.239.

Q: For RRIRCRPPRLPRPRPRPMSDPRP, which “shrunken log2 fold change” value is on record?
A: Its value is 0.113.

Q: How did the “shrunken log2 fold change” value turn out when RRIRVRPPRLPRPRPRPCHAPRP was run?
A: Its value is -0.311.

Q: With RRIRSRPPRLPRPRPRPYQYPRP as the sequence, how does the “shrunken log2 fold change” value read?
A: Its value is -1.11.

Q: With RRIRRRPPRLPRPRPRPVAVPRP as the sequence, how does the “shrunken log2 fold change” value read?
A: The value was 0.348.

Q: Which “shrunken log2 fold change” value does the source give for RRIRHRPPRLPRPRPRPHAPPRP here?
A: Its value is -0.0972.

Q: Which “shrunken log2 fold change” value does the source give for RRIRARPPRLPRPRPRPNALPRP here?
A: Its value is 0.296.

Q: How did the “shrunken log2 fold change” value turn out when RRIRNRPPRLPRPRPRPMVYPRP was run?
A: Its value is 0.0157.

Q: With RRIRRRPPRLPRPRPRPWHKPRP as the sequence, how does the “shrunken log2 fold change” value read?
A: The value was -0.384.

Q: How did the “shrunken log2 fold change” value turn out when RRIRMRPPRLPRPRPRPYYQPRP was run?
A: The value was -0.856.

Q: How did the “shrunken log2 fold change” value turn out when RRIRHRPPRLPRPRPRPVIKPRP was run?
A: Its value is -0.0701.

Q: How did the “shrunken log2 fold change” value turn out when RRIRGRPPRLPRPRPRPGPEPRP was run?
A: Its value is 0.954.

Q: RRIRCRPPRLPRPRPRPFIKPRP was tested. Which “shrunken log2 fold change” value did it give?
A: Its value is -0.715.

Q: How did the “shrunken log2 fold change” value turn out when RRIRFRPPRLPRPRPRPVPRPRP was run?
A: The value was 0.384.

Q: With RRIRHRPPRLPRPRPRPGMVPRP as the sequence, how does the “shrunken log2 fold change” value read?
A: Its value is 0.12.

Q: For RRIRLRPPRLPRPRPRPWTSPRP, which “shrunken log2 fold change” value is on record?
A: The value was -0.384.

Q: Which “shrunken log2 fold change” value does the source give for RRIRGRPPRLPRPRPRPKYGPRP here?
A: Its value is -0.111.

Q: RRIRMRPPRLPRPRPRPVAYPRP was tested. Which “shrunken log2 fold change” value did it give?
A: The value was 0.214.

Q: RRIRHRPPRLPRPRPRPLYRPRP was tested. Which “shrunken log2 fold change” value did it give?
A: Its value is -0.343.

Q: Which “shrunken log2 fold change” value does the source give for RRIRCRPPRLPRPRPRPAVRPRP here?
A: The value was 0.0848.

Q: Which “shrunken log2 fold change” value does the source give for RRIRRRPPRLPRPRPRPRDWPRP here?
A: The value was 1.01.

Q: Which “shrunken log2 fold change” value does the source give for RRIRMRPPRLPRPRPRPSWNPRP here?
A: Its value is -0.15.

Q: With RRIRCRPPRLPRPRPRPYHWPRP as the sequence, how does the “shrunken log2 fold change” value read?
A: The value was -1.09.

Q: Which “shrunken log2 fold change” value does the source give for RRIRSRPPRLPRPRPRPHMKPRP here?
A: Its value is 0.427.

Q: For RRIRHRPPRLPRPRPRPPLNPRP, which “shrunken log2 fold change” value is on record?
A: The value was -0.0242.

Q: With RRIRSRPPRLPRPRPRPCEKPRP as the sequence, how does the “shrunken log2 fold change” value read?
A: Its value is -0.475.

Q: With RRIRNRPPRLPRPRPRPKLWPRP as the sequence, how does the “shrunken log2 fold change” value read?
A: The value was -0.0235.

Q: How did the “shrunken log2 fold change” value turn out when RRIRFRPPRLPRPRPRPPDTPRP was run?
A: Its value is 0.254.

Q: Which “shrunken log2 fold change” value does the source give for RRIRDRPPRLPRPRPRPSDRPRP here?
A: Its value is 0.159.

Q: With RRIRHRPPRLPRPRPRPEQAPRP as the sequence, how does the “shrunken log2 fold change” value read?
A: The value was -0.0477.

Q: RRIRQRPPRLPRPRPRPTSWPRP was tested. Which “shrunken log2 fold change” value did it give?
A: The value was -0.00172.

Q: For RRIRYRPPRLPRPRPRPDKYPRP, which “shrunken log2 fold change” value is on record?
A: Its value is 0.0363.

Q: With RRIRCRPPRLPRPRPRPFCPPRP as the sequence, how does the “shrunken log2 fold change” value read?
A: Its value is -0.225.

Q: With RRIRNRPPRLPRPRPRPQVSPRP as the sequence, how does the “shrunken log2 fold change” value read?
A: The value was -0.434.

Q: RRIRHRPPRLPRPRPRPNNMPRP was tested. Which “shrunken log2 fold change” value did it give?
A: The value was -0.674.

Q: With RRIRCRPPRLPRPRPRPGKHPRP as the sequence, how does the “shrunken log2 fold change” value read?
A: Its value is -0.423.

Q: RRIRCRPPRLPRPRPRPHQRPRP was tested. Which “shrunken log2 fold change” value did it give?
A: The value was -0.422.

Q: RRIRPRPPRLPRPRPRPYLTPRP was tested. Which “shrunken log2 fold change” value did it give?
A: The value was -0.689.

Q: For RRIRVRPPRLPRPRPRPVEFPRP, which “shrunken log2 fold change” value is on record?
A: Its value is 0.0286.

Q: With RRIRIRPPRLPRPRPRPDKSPRP as the sequence, how does the “shrunken log2 fold change” value read?
A: Its value is -0.0563.

Q: RRIRNRPPRLPRPRPRPSCQPRP was tested. Which “shrunken log2 fold change” value did it give?
A: Its value is -0.185.

Q: Which “shrunken log2 fold change” value does the source give for RRIRHRPPRLPRPRPRPAEDPRP here?
A: The value was 0.262.

Q: Which “shrunken log2 fold change” value does the source give for RRIRHRPPRLPRPRPRPKRKPRP here?
A: Its value is 0.0863.

Q: With RRIRQRPPRLPRPRPRPRMPPRP as the sequence, how does the “shrunken log2 fold change” value read?
A: The value was 0.216.

Q: How did the “shrunken log2 fold change” value turn out when RRIRERPPRLPRPRPRPPCCPRP was run?
A: The value was 0.00664.

Q: With RRIRKRPPRLPRPRPRPDWFPRP as the sequence, how does the “shrunken log2 fold change” value read?
A: The value was 0.178.

Q: How did the “shrunken log2 fold change” value turn out when RRIRGRPPRLPRPRPRPQKCPRP was run?
A: Its value is 0.122.

Q: How did the “shrunken log2 fold change” value turn out when RRIRLRPPRLPRPRPRPQNSPRP was run?
A: Its value is -0.767.

Q: RRIRFRPPRLPRPRPRPEVEPRP was tested. Which “shrunken log2 fold change” value did it give?
A: The value was 0.00408.

Q: With RRIRWRPPRLPRPRPRPLSAPRP as the sequence, how does the “shrunken log2 fold change” value read?
A: The value was 0.553.
